Experimental data from PMC6934413.

T1: SmcH-CC100 (Smc hinge with adjacent coiled coil) (Bacillus subtilis, UniProt P51834 400-776)
T1 sequence: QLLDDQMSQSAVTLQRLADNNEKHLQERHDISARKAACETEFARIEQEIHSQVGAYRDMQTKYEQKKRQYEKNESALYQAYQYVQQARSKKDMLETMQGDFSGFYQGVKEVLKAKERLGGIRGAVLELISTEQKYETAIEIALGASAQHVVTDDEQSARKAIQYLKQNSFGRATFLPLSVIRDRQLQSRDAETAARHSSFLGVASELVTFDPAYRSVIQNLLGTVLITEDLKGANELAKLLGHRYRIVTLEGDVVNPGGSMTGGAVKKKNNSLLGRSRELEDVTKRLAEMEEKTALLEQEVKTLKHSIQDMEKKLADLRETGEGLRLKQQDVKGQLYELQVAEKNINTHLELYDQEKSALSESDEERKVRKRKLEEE

T2: SmcHd(EQ,3A-hd);ScpA-N (Bacillus subtilis;Bacillus subtilis, UniProt P51834;P51834;P35154 1-219;983-1186;1-86, K60A;R120A;K122A;EQ|)
T2 sequence 1: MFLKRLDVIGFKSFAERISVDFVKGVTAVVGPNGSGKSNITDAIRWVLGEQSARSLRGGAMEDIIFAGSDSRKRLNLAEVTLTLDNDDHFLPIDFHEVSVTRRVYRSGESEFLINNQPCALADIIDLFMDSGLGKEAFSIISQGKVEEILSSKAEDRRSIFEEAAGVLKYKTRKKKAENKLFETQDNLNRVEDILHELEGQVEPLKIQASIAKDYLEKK
T2 sequence 2: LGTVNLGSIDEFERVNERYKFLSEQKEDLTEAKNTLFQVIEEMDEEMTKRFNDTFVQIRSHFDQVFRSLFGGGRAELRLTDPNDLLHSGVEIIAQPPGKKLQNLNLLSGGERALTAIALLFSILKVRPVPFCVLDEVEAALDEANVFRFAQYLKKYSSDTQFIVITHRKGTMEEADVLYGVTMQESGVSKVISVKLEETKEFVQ
T2 sequence 3: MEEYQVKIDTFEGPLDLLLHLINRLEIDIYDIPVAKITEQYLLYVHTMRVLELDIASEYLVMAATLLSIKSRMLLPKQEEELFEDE

T3: SmcHd(EQ);ScpA-N (Bacillus subtilis;Bacillus subtilis, UniProt P51834;P35154 1-219+=GPG+983-1186;1-86, E1118Q;internal_change|)
T3 sequence 1: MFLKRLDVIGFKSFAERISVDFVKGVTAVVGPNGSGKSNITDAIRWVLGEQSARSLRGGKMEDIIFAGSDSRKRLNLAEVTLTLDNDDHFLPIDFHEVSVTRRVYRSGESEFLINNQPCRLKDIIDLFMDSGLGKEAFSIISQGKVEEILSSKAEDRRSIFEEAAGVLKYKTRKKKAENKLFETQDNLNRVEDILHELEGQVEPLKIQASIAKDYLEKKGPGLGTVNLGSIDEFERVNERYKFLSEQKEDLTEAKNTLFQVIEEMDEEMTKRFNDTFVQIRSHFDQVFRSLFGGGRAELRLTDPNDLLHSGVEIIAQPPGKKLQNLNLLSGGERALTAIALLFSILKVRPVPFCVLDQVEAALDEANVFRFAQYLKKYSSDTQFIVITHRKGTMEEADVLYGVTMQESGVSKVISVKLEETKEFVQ
T3 sequence 2: T2 sequence 3

B1: 40 bp random sequence dsDNA (dsDNA)
DNA 1: TTAGTTGTTCGTAGTGCTCGTCTGGCTCTGGATTACCCGC
DNA 2: GCGGGTAATCCAGAGCCAGACGAGCACTACGAACAACTAA

Tests used:
[1] = biological target: Smc-HaloTag with J-Cys (S152C) (Bacillus subtilis) (UniProt P51834); assay: cross-linking
[2] = biological target: T1, SmcH-CC100 (Smc hinge with adjacent …); assay: fluorescence anisotropy
[3] = biological target: T2, SmcHd(EQ,3A-hd);ScpA-N; assay: fluorescence anisotropy
[4] = biological target: T3, SmcHd(EQ);ScpA-N; assay: fluorescence anisotropy

| Molecule | fraction of Smc-HT in the cross-linked species [1] | binding result [2] | binding result [3] | binding result [4] |
| --- | --- | --- | --- | --- |
| Smc-HaloTag with J-Cys (S152C) (from UniProt P51834 1-1186) (natural protein) | 66% | – | – | – |
| B1 | – | binds | no binding | binds |
